In FireProtDB (doi:10.1021/bi00123a006):

Conditions: Bacillus amyloliquefaciens, 25 °C, Urea, NMR, NaCl 1 M, whole UniProt chain shown

B1: Ribonuclease wild type, P00648 (protein)
chain: MMKMEGIALKKRLSWISVCLLVLVSAAGMLFSTAAKTETSSHKAHTEAQVINTFDGVADYLQTYHKLPDNYITKSEAQALGWVASKGNLADVAPGKSIGGDIFSNREGKLPGKSGRTWREADINYTSGFRNSDRILYSSDWLIYKTTDHYQTFTKIR
unfolding free energy (pH 4.4, Sodium acetate 30 mM): 8.13 kcal/mol | unfolding free energy (pH 8.9, Tris 30 mM): 8.05 kcal/mol
